Reference: PMC5366289 (Biochemistry, 2016)
Where two headings read alike, the source gives them in different places.

T1: TolC trimer (E. coli, UniProt P02930 23-493)
T1 sequence (looked up): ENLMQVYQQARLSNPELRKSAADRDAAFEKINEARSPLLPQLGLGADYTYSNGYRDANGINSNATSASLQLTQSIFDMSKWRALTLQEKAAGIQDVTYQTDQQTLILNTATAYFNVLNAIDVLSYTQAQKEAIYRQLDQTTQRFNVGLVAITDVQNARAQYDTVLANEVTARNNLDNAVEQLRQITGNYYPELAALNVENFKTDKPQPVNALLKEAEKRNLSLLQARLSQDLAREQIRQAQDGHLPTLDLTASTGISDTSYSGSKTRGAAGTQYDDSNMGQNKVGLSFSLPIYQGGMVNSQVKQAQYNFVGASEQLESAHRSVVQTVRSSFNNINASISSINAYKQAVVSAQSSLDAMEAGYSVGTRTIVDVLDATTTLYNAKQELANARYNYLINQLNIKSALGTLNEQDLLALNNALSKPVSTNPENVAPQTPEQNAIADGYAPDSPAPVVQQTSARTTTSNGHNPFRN


Tests used:
[1] = Far-UV circular dichroism, helical content of T-domain peptides; format: physicochemical; conditions: for secondary structure, in words: far-UV CD, 50 mM sodium phosphate; for no. of residues, helix: from helical content by far-UV CD, DichroWeb, tags assumed unordered; for no. of residues, unordered: total number in peptide excluding tags minus residues in helices
TolC = TolC (Escherichia coli, UniProt P02930); conditions: for occlusion of TolC channels (Figure 3 legend): 2 μg/mL both sides, 50 mV, 0.1 M KCl, 5 mM Tris-HCl pH 7.5
[2] = Thermal melting followed by CD at 222 nm; format: physicochemical; conditions: CD 222 nm, 0.5 °C/min, 1 cm cuvette, pH 7.0
[3] = reference for disordered protein in CD222/CD208 plot; cited from earlier work
TolC trimer [4] = target: T1, TolC trimer; assay: precipitation upon mixing
TolC trimer [5] = assay: Co-elution of T-domain peptides with TolC on Superdex 200 size-exclusion column; format: binding, Escherichia coli; conditions: TolC:peptide 1:2, Superdex 200; peak shift and SDS–PAGE
TolC trimer [6] = target: T1, TolC trimer; assay: SEC
TolC trimer [7] = target: T1, TolC trimer; assay: occlusion of TolC ion channels in planar bilayer lipid membranes
TolC trimer [8] = target: T1, TolC trimer; assay: SEC; remark: listed apart in the source

| Molecule | no. of residues, helix [1] [residues] | no. of residues, unordered [1] [residues] | also measured |
| --- | --- | --- | --- |
| 1–40 ^c: colicin E1 T-domain peptide, residues 1–40 (METAVAYYKDGVPYDDKGQVIITLLNGTPDGSGSGGGGGK; UniProt P02978 1-40, looked up, fragment) | 0 | 40 | secondary structure, in words [1]: predominately disordered |
| 81–140 ^b: colicin E1 T-domain peptide, residues 81–140 (AKAKANRDALTQRLKDIVNEALRHNASRTPSATELAHANNAAMQAEDERLRLAKAEEKAR; UniProt P02978 81-140, looked up, fragment) | – | 25 | – |
| 100–140 ^b: colicin E1 T-domain peptide, residues 100–140 (EALRHNASRTPSATELAHANNAAMQAEDERLRLAKAEEKAR; UniProt P02978 100-140, looked up, fragment) | – | 15 | occlusion of TolC channels (Figure 3 legend) (TolC): Occlusion of TolC channels; effect on transmembrane current through TolC channels (TolC; 2 μg/mL on both sides of BLM): significant and irreversible decrease in transmembrane current |
| 139–190 ^b: colicin E1 T-domain peptide, residues 139–190 (ARKEAEAAEKAFQEAEQRRKEIEREKAETERQLKLAEAEEKRLAALSEEAKA; UniProt P02978 139-190, looked up, fragment) | – | 7 | – |
| 141–190 ^c: colicin E1 T-domain peptide, residues 141–190 (KEAEAAEKAFQEAEQRRKEIEREKAETERQLKLAEAEEKRLAALSEEAKA) | – | 5 | cooperativity of thermal melting [2]: not cooperative |
| α-synuclein | – | – | helical content [3]: 0% |
| 81–141 ^c: colicin E1 T-domain peptide, residues 81–141 (peptide, UniProt P02978 81-141, looked up, fragment) AKAKANRDALTQRLKDIVNEALRHNASRTPSATELAHANNAAMQAEDERLRLAKAEEKARK | – | 44 | – |
| colicin E1 T-domain peptide T57–120 (domain or fragment, UniProt P02978 57-120, looked up) WSTAQLKKTQAEQAARAKAAAEAQAKAKANRDALTQRLKDIVNEALRHNASRTPSATELAHANN | 44 ± 4 | 20 | binding result (TolC trimer [4]): binds; co-elution / interaction with TolC, in words (TolC trimer [5]): severe protein precipitation |
| colicin E1 T-domain peptide T1–140 (domain or fragment, UniProt P02978 1-140, looked up) METAVAYYKDGVPYDDKGQVIITLLNGTPDGSGSGGGGGKGGSKSESSAAIHATAKWSTAQLKKTQAEQAARAKAAAEAQAKAKANRDALTQRLKDIVNEALRHNASRTPSATELAHANNAAMQAEDERLRLAKAEEKAR | – | – | binding result (TolC trimer [6]): binds |
| colicin E1 T-domain peptide T57–140 (domain or fragment) WSTAQLKKTQAEQAARAKAAAEAQAKAKANRDALTQRLKDIVNEALRHNASRTPSATELAHANNAAMQAEDERLRLAKAEEKAR | 54 ± 4 | 30 | concentration at which TolC channels were efficiently occluded (TolC; I = 0.1 M, pH 7.5): ≥ 0.2 µM; concentration at which TolC channels were not occluded (TolC; I = 0.1 M, pH 7.5): 40 nM; co-elution / interaction with TolC, in words (TolC trimer [5]): severe protein precipitation; Kd (TolC trimer [7]): ~100 nM |
| 100–190 ^b: colicin E1 T-domain peptide, residues 100–190 (peptide, UniProt P02978 100-190, looked up, fragment) EALRHNASRTPSATELAHANNAAMQAEDERLRLAKAEEKARKEAEAAEKAFQEAEQRRKEIEREKAETERQLKLAEAEEKRLAALSEEAKA | – | 12 | cooperativity of thermal melting [2]: not cooperative |
| 1–81 ^c: colicin E1 T-domain peptide, residues 1–81 (peptide, UniProt P02978 1-81, looked up, fragment) METAVAYYKDGVPYDDKGQVIITLLNGTPDGSGSGGGGGKGGSKSESSAAIHATAKWSTAQLKKTQAEQAARAKAAAEAQA | 13 ± 2 | ~70 | secondary structure, in words [1]: low helical content; secondary structure, in words ([1]; listed as T1–81): predominately disordered |
| colicin E1 T-domain peptide T57–190 (domain or fragment) WSTAQLKKTQAEQAARAKAAAEAQAKAKANRDALTQRLKDIVNEALRHNASRTPSATELAHANNAAMQAEDERLRLAKAEEKARKEAEAAEKAFQEAEQRRKEIEREKAETERQLKLAEAEEKRLAALSEEAKA | – | – | binding result (TolC trimer [8]): binds |
| 1–100 ^b: colicin E1 T-domain peptide, residues 1–100 (peptide) METAVAYYKDGVPYDDKGQVIITLLNGTPDGSGSGGGGGKGGSKSESSAAIHATAKWSTAQLKKTQAEQAARAKAAAEAQAKAKANRDALTQRLKDIVNE | 30 ± 4 | ~70 | occlusion of TolC channels (Figure 3 legend) (TolC): Lack of TolC occlusion; effect on transmembrane current through TolC channels (TolC; 10 μg/mL): did not decrease the transmembrane current; increase in helical residues on lengthening the peptide ([1]; versus next shorter peptide (1–81, 1–100, 1–120, 1–140, 1–190 series)): 17 residues |
| colicin E1 T-domain peptide T1–120 (domain or fragment, UniProt P02978 1-120, looked up) METAVAYYKDGVPYDDKGQVIITLLNGTPDGSGSGGGGGKGGSKSESSAAIHATAKWSTAQLKKTQAEQAARAKAAAEAQAKAKANRDALTQRLKDIVNEALRHNASRTPSATELAHANN | 46 ± 12 | 74 | binding result (TolC trimer [6]): binds; co-elution / interaction with TolC, in words (TolC trimer [5]): Co-elution was detected |
| 41–140 ^b: colicin E1 T-domain peptide, residues 41–140 (peptide, UniProt P02978 41-140, looked up, fragment) GGSKSESSAAIHATAKWSTAQLKKTQAEQAARAKAAAEAQAKAKANRDALTQRLKDIVNEALRHNASRTPSATELAHANNAAMQAEDERLRLAKAEEKAR | 65 ± 5 | 35 | – |
| 41–120 ^b: colicin E1 T-domain peptide, residues 41–120 (peptide, UniProt P02978 41-120, looked up, fragment) GGSKSESSAAIHATAKWSTAQLKKTQAEQAARAKAAAEAQAKAKANRDALTQRLKDIVNEALRHNASRTPSATELAHANN | 29 ± 2 | 51 | – |
| colicin E3 peptide T1–83: naturally disordered T1–83 peptide of colicin E3 used for zero helical content (peptide, UniProt P00646 1-83, looked up, fragment) MSGGDGRGHNTGAHSTSGNINGGPTGLGVGGGASDGSGWSSENNPWGGGSGSGIHWGGGSGHGNGGGNGNSGGGSGTGGNLSA | – | – | helical content ([1]; reference for disordered protein in CD222/CD208 plot): 0% |
